The data set in a line: soluble on expression in E. coli; label from the status in PepcDB or PDB records.
In the case of “MSLDSIKVKNEYEKLTGSDSVVRRGMFNVYQKKNDYYFEIPSTLLERDMLVVNKLQRVPAELNEAGVNRGTNYENQMIRFELDKSANKLLIRQSRPLPISPSEDAISQSVKDNYISPLIAGFKVEAYNNDSTSILIKVNDIYDGTETSINNVFTNINLGTSAIKNLSRILSIKSFDNNVVATSELTTRVTEGTTTIYVTVEVSSSILLLPEVPMTGRLDNPRVGYFTNPLTNFSDGQQRVNKKQFITRWRLEPRPEDRAAYLRGELVEPRKPIVFYIENSTPYRWRKYIKQGIEDWQVAFERAGFKNAIIAKDITEDMEVDMDDVNYSVLTYAASTKANAMGPSILDPRSGEILEADIMWWHNVLSMLQEWITVQTGVVRPEARGVALPDSLMGDAMRFVACHEVGHSLGLRHNMMGSWAFPTDSLRSKTFTDRMNSTSSSIMDYARFNYVAQPGDGIKALSPHIGPYDMFAIEYGYRWYGKQTPEEEKELLQDFLAKHTDRLYKYSEAQDPRDAVDPRAQNEDLGDDPIRSSQYGIANLKCIVPQIIQWTTTGEKGQTYEEASRLYYAVINQWNNYLYHVMANIGGIYIENTTVGDGEKTYTFVEKEKQQAALRFLLDEVLCYPKWLFDPEIAQYTYLLKNTPLGVVENAPTQVLKNAQAYVFWDLLSNNRLMRMLENESVNGKKAFTAVELMDGLHKSIFAVTERGGLPDVMTRNLQKGFVDALITAAAESEGVKVNKKLIDNHFLFDLQTPICSCDDHVHRSAHTDRMGARRELNFYGSQINRISDAISVKRGELLRIKDLLQSRLGTSDVATKYHYKDLILRINTALGISKEGHHHHHH”, the “soluble on expression in E. coli” value is recorded as “soluble”.

On to “MSLHHLTTYITHDTLISALGFGTQENLEAIRSYHSGITLQTDKRIADTPLLAATLSQERLQQQAEAIGVSGYPRMEQLFILTINELIRQSGQTLEDKTCGLILSTTKGNIDLLARHTEHPDEAVFLWKMAENIAGYFHAEERVHVISNACISGVSALIAGKRMIENGIYRRVIVAGGDLLSHFITSGFGSFRSLSSRPCRPYDSSRDGLNLGEACGAVLLSSEGTEEHVILSGGAVSNDANHISGPSRTGDGLYFAIRQAMQEAGTAPQDISFVNAHGTATVYNDEMESKALTLAHLEQVPVHSLKPYFGHTLGASGIIESIVCMHELKQGILFGTPGYETPGVPMPIPVYATHRSIPMKHCVKTASGFGGCNAAIVLSLPEYTPFKDEDNTLPEIRCTREVRIENSSVFINNELIFHSEEPDFGTFIRDTYKKTGGNNLKFYKMDDLCKLGYVAAEYLLEGKTFAPLEMGMLLANAASSLHTDIRHQQLIDREGDQAASPAVFVYTLPNVVSGEICIRHKIQGENTFFITEAYQPEKLERYARIVMQKGKLNYCIIGWCELWKNTYKAVFKLIEKEGHHHHHH”, for which the “soluble on expression in E. coli” value is given as “soluble”.

As to “MNDEINEPPPNICEQCLGDEANIRMTKIPQGSECKICTLPFTLYHFKTSKRSNNIIKTLICVRCATQRNICQCCMLDSRWHIPIQLRDHLISLVNEENVMTEEAKNDMMKRFLSLKNVKLGGAQITSDPSEADNIVDKLKNILLRATSDGPSTPLIKNTTALYKNEKGANEVKNLEKYASVDISHILKKLPLNESFLKNPSTKSFFLYNIDASIPEWKITDTVSQLLGIKKWKDGNSLSLIVNHKAKCGGLRFQSSELGERFVSKISETLVTPKGLKRGVLLIDRFRIFIIPWSSGFSAASFGTNTAENIKLSLSLNKLIQLELGLSFPTKSTDNAKNDKKKTSKKVHKDRSKKSKPRANKLTI”, the “soluble on expression in E. coli” value was “soluble”.

Regarding “MGSDKIHHHHHHMKVTLIGIDLAKNVLQVCGVNQVGKTLFNRTVKRTQLLKTLVQYPDAVIAMEACSGSNYWGRELLSRGFEVKLIPPQHVKPFVKGNKNDRNDAFAICEAAMRPNIIFVKPRTLAQVDIIISHRIRERRIRVRTALTNQIRGLLSEYGIVIPKGRDPLNLALPELLEDADNSLTTTARRYIRELLDELYAINASIKALEKEIRLQARNHEDTKRLTAIRGVAEIIATASVSFAGDGSGYQNGRHFSANLGLVPKEFSSGGKQKLGAITKRGNSYLRRQLIQGAWSVIRYAKNNDDRLSVWARKVIERRGKQKAAVAVANKLARIIWAMLYYKTEYRPS”, the “soluble on expression in E. coli” value is “not soluble”.

For the sequence “MGSSHHHHHHSSGTIEGRMIRLTDNRPIGFIDSGVGGLTVVKEALKQLPNENILFVGDTARCPYGPRPAEQVIQYTWEMTDYLVEQGIKMLVIACNTATAVALEEIKAALSIPVIGVILPGTRAAVKKTQNKQVGIIGTIGTVKSQAYEKALKEKVPELTVTSLACPKFVSVVESNEYHSSVAKKIVAETLAPLTTKKIDTLILGCTHYPLLRPIIQNVMGENVQLIDSGAETVGEVSMLLDYFNLSNSPQNGRTLCQFYTTGSAKLFEEIAEDWLGIGHLNVEHIELGGK”, the “soluble on expression in E. coli” value was “soluble”.

The values above are taken from the DeepSol protein solubility set.
